Laboratory results reported in the nanobody polyreactivity screen of Harvey et al. (2022).

Test: yeast display, Sf9 membrane polyspecificity reagent, FACS + sequencing; frameworks hold sequencing errors
In short: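 Sorting gates, low and high (top ~1%), were placed on anti-HA fluorescence to track expression and on streptavidin fluorescence to track reagent binding. A clone's polyreactivity label is taken from the gate it came out of. The reagent was 10% biotinylated, detergent-solubilized Sf9 membrane, applied for 1 hour at 4 °C to galactose-induced yeast display cells.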

Row | Sequence | polyreactivity (PSR sort gate)
1 | QVQLVESGGGLVQAGGSLRLSCAASGFIFRVYTMVWYRQAPGKERELVAAISYRGGRTYYADSVKGRFTISRDNAKNTVFLQMNSLKPEDTAVYYCAADRVNREFDYWGQGTQVTVSS | high polyreactivity
2 | QVQLVESGGGLVQAGGSLRLSCAASGFIFRWYAMGWYRQAPGKERDLVATISSGGSTYYADSVKGRFTISRDNAMNTFYLQMISLKPEDTAVYYCAARFHYRGALYYYWGQGTQVTVSS | high polyreactivity
3 | QVQLVESGGGLVQAGGSLRLSCAASGFIFRWYAMGWYRQAPGKERELVAAISRSGDSTYYADSVKGRFTISRDNAKNTVYLQMNSLKPEETAVYYCAADDRYYTYGYDYWGQGTQVTVSS | low polyreactivity
4 | QVQLVESGGGLVQAGGSLRLSCAASGFIFRYNAMGWYRQAPGKEREFVAAISQGGASTYYADSVKGRFTISRVNAKNTVYLQINSLKPEDTAVYYCAREPSIFTPSYDYWGQGTQVTVSS | low polyreactivity
5 | QVQLVESGGGLVQAGGSLRLSCAASGFIFRYNAMGWYRQAPGKERELVAAIDSGGSTYYADSVKGRFTISRDNAKNTVYLQMNSLKPEDTAVYYCNAVHEASYAGVDYWGQGTQVTVSS | low polyreactivity
6 | QVQLVESGGGLVQAGGSLRLSCAASGFIFRYNAMGWYRQAPGKERELVAAISWNGGRTYYADSVKGRFTISRDNAKNTVYLQMNSLKPEDTAVYYCAAELSSYFFSAGYDYWGQGTQVTVSS | high polyreactivity
7 | QVQLVESGGGLVQAGGSLRLSCAASGFIFRYNAMGWYRQAPGKERELVAVITSGDNTYYADSVKGRFTISRDNAKNTVYLQMNSLKPEDTAVYYCAARYRHYFVRGGYWGQGTQVTVSS | high polyreactivity
8 | QVQLVESGGGLVQAGGSLRLSCAASGFIFRYYAMGWYRQAAGTERELVAAISGGGSSTYYADSVKGRFTISRDNAKNTVYLQMNSLKPEDTAVYYSTARYYYPAIKYDYCGQGTQVTVSS | low polyreactivity
9 | QVQLVESGGGLVQAGGSLRLSCAASGFIFRYYAMGWYRQAPGKERELVAAINRGGGTNYADSVKGRFTISRDNAKNTVYLQMNSLKPEDTAVYYCAAVIRTVRERYGYWGQGTQVTVSS | high polyreactivity
10 | QVQLVESGGGLVQAGGSLRLSCAASGFIFRYYAMGWYRQAPGKERELVAAINTGGTTYYADSVKGRFTISRDNAKNTVYLQMNSLKPEDTAVYYCATDGSPGYDWGQGTQVTVSS | high polyreactivity
11 | QVQLVESGGGLVQAGGSLRLSCAASGFIFRYYAMGWYRQAPGKERELVAAISRTGGSTYYADSVKGRFTISRDNAKNTVYLQMNSLKPEDTAVYYCAADWWAWRAYYYWGQGTQVTVSS | high polyreactivity
12 | QVQLVESGGGLVQAGGSLRLSCAASGFIFRYYAMGWYRQAPGKERELVAAISSGGGTTYADSVKGRFTISRDNAKNTVYLQMNSLKPEDTAVYYCAAVSYYARYTYGYDYWGQGTQVTVSS | high polyreactivity
13 | QVQLVESGGGLVQAGGSLRLSCAASGFIFRYYAMGWYRQAPGKERELVAAISSSGGSTRYADSVKGRFTISRDNAKNTVYLQMNSLKPEDTAVYYCAARRWRGRYWGDYWGQGTQVTVSS | high polyreactivity
14 | QVQLVESGGGLVQAGGSLRLSCAASGFIFRYYAMGWYRQAPGKERELVAAISWSGGSTYYADSVKGRFTISRDNAKNTVYLQMNSLKPEDTAVYYCAADRYAILFYAEDYWGQGTQVTVSS | low polyreactivity
15 | QVQLVESGGGLVQAGGSLRLSCAASGFIFRYYAMGWYRQAPGKERELVAAITWSGGSTYYADSVKGRFTISRDNAKNTVYLQMNSLKPEDTAVYYCAADLYYFRYPGYDYWGQGTQVTVSS | high polyreactivity
16 | QVQLVESGGGLVQAGGSLRLSCAASGFIFRYYAMGWYRQAPGKERELVASIVWSGGNTYYADSVKGRFTISRDNAKNTVYLQMNSLKPEDTAVYYCNRRGMDWGQGTQVTVSS | low polyreactivity
17 | QVQLVESGGGLVQAGGSLRLSCAASGFIFSFYAMGWYRQAPGKERALVAAINWSGGSTYYADSVKGRFTISRDNAKNTVYIQMNSLKPEDTEVYYCNAVQYFSIPKPVWLFVLRYYYWGQGTQVTVSS | low polyreactivity
18 | QVQLVESGGGLVQAGGSLRLSCAASGFIFSGNAMGWYRQAPGKERELVAAISTSGGRTYYADSVKGRFTISRDNAKNSDYLQMKSLKPEDTAVYYFNRAPWYRYTRDKYEYWGQGTQVTVSS | high polyreactivity
19 | QVQLVESGGGLVQAGGSLRLSCAASGFIFSGNAMGWYRQAPGKERELVARIRSGDRTYYADSVKGRFTISRDNAKNTVYLQMNSLKPEDTAVYYCAAYAWYDWRSYFPILGYEYCGQGTQVTVSS | low polyreactivity
20 | QVQLVESGGGLVQAGGSLRLSCAASGFIFSGNAMGWYRQAPGKERELVARIRSGDRTYYADSVKGRFTISRDNAKNTVYLQMNSLKPEDTAVYYCAAYAWYDWRSYFPILGYEYWGQGTQVTVSS | low polyreactivity
21 | QVQLVESGGGLVQAGGSLRLSCAASGFIFSGYAMGWYRQAPGKERELVAAITSSGGNTYYADSVKGRFTISRDNAKNTVYLQMNSLKAEDTAVYYCARYSIFRWTRDEYWGQGTQVTVSS | high polyreactivity
22 | QVQLVESGGGLVQAGGSLRLSCAASGFIFSGYVMGWYRQAPGKERELVAAITGSDGSTYYADSVKGRFTISRDNAKNTVYLQMNSLKPEDTAVYYCATTFQYYWFSLYDYWGQGTQVTVSS | low polyreactivity

Row | Sequence | polyreactivity (PSR sort gate)
23 | QVQLVESGGGLVQAGGSLRLSCAASGFIFSKYAMGWYRQAPGKERELVAAISWSGGSTYYADSVKGRFTISRDNAKNTVYLQMNSLKPEDTAVYYCAADWYFELFRVYAEYDYWGQGTQVTVSS | low polyreactivity
24 | QVQLVESGGGLVQAGGSLRLSCAASGFIFSKYTMGWSRQAPGKERELVASISWSGGSTYYADSVKGRFTISRDTAKNTVFLQMNSLKPEDTAVYYCAAEAWGWVFGGYYYWGQGTQVTVSS | low polyreactivity
25 | QVQLVESGGGLVQAGGSLRLSCAASGFIFSNYAMGWYRQAPGKERELVAAISWSGGNTYYADSVKGRFTISRDNAKNTVYLQMNSLKPEDTAVYYCTRVKAYYRWFLPRYQYNYWGQGTQVTVSS | high polyreactivity
26 | QVQLVESGGGLVQAGGSLRLSCAASGFIFSPYAMGWYRQAPGKERELVAAINGGGRTYYADSVKGRFTISRDNAKNTVYLQMNSLKPEDTAVYYCAVDPISQGHMDYWGQGTQVTVSS | low polyreactivity
27 | QVQLVESGGGLVQAGGSLRLSCAASGFIFSPYAMGWYRQAPGKERELVAAISSGTRTNYADSVKGRFTISRDNAKNTVYLQMNSLKPEDTAVYYCAAKYRGTYDSRVYYWFYYWGQGTQVTVSS | high polyreactivity
28 | QVQLVESGGGLVQAGGSLRLSCAASGFIFSPYAMGWYRQAPGKERELVATITWSGGRTYYADSVKGRFTISRDNAKNTVYLQMNSLKPEDTAVYYCNADGYQPALNKDFGYWGQGTQVTVSS | low polyreactivity
29 | QVQLVESGGGLVQAGGSLRLSCAASGFIFSQNAMGWYRQAPGKERELVAAITSGGGTNYADSVKGRFTISRDNAKNTVYLQMNSLKPEDTAVYYCAADDEKRYSYQTYFERDYWGQGTQVTVSS | low polyreactivity
30 | QVQLVESGGGLVQAGGSLRLSCAASGFIFSQNVMGWYRQAPGKERELVAAISSSGGSTYYADSVKGRFTISRDNAKNTVYLQMNSLKREDTAVYYCAARPYVRFNYWGQGTQVTVSS | high polyreactivity
31 | QVQLVESGGGLVQAGGSLRLSCAASGFIFSRNAMGWYRQAPGKERELVAAITRGGITYYADSVKGRFTISRDNAKNTVYLQMNSLKPEDTAVYYCAAYRTYQAYTGSHYYYWGQGTQVTVSS | high polyreactivity
32 | QVQLVESGGGLVQAGGSLRLSCAASGFIFSRNAMGWYRQAPGKERELVATISKRGGSTYYADSVKGRFTISRDNAKNTVYLQMNSLKPEDTAVYYCAATGGILSTYDYWGQGTQVTVSS | high polyreactivity
33 | QVQLVESGGGLVQAGGSLRLSCAASGFIFSRYAMGWYRQAPGKERELVAAIRFSGSITYYADSVKGRFTISRDNAKNTVYLQMNSLKPEDTAVYYCAAYRRYYGWYEYWGQGTQVTVSS | high polyreactivity
34 | QVQLVESGGGLVQAGGSLRLSCAASGFIFSRYAMGWYRQAPGKERELVAAISIGGSTYYADSVKGRFTISRDNAKNTVYVQMNSLKPEDTAVYYCPVDYRHSSSWNAGPWEMYYWGQGTQVTVSS | low polyreactivity
35 | QVQLVESGGGLVQAGGSLRLSCAASGFIFSRYAMGWYRQAPGKVRELVASISWGGGSTSYADSVKGRFTISRDNAKNTVYLQMNSLKPEDTAVYYCNARVRSHRFNYWGQGTQVTVSS | high polyreactivity
36 | QVQLVESGGGLVQAGGSLRLSCAASGFIFSRYPMGWYRQAPGKERELVASISWRGGSTSYADSVKGRFTISRDNAKNTVYLQMNSLKPEDTAVYYCAASSRQVLEYDYWGQGTQVTVSS | high polyreactivity
37 | QVQLVESGGGLVQAGGSLRLSCAASGFIFSRYSMGWYRQAPGKERELVAGITSRGGITYYADSVKGRFTISRDNAKNTVYLQMNSLIPEDTAVYYCNAGKSLSKSFDYWGQGTQVTVSS | high polyreactivity
38 | QVQLVESGGGLVQAGGSLRLSCAASGFIFSRYVMGWYRQAPGKERELVAAISGSGGRTYYADSVKGRFTISRDKAKNTVYLQMNSLKPEDTAVYYCAARFLSPYHYYYWGQGTQVTVSS | high polyreactivity
39 | QVQLVESGGGLVQAGGSLRLSCAASGFIFSSNAMGGYRQAPGKERELDATISFSGDSTYYADSVKGRFTISRDNEKNTVYLQMNSLKPEDTAVYYCARSTYYRWYKYGYYDYNYWGQGTQVTVSS | low polyreactivity
40 | QVQLVESGGGLVQAGGSLRLSCAASGFIFSSNAMGWYRQAPGKERELVAGITASGVSTYYADSVKGRFTISRDNAKNTVYLQMNSLKPEDTAVYYCAALGLYYYFYSQYIDWDDYWGQGTQVTVSS | low polyreactivity
41 | QVQLVESGGGLVQAGGSLRLSCAASGFIFSSNAMGWYRQAPGKERELVATISFSGESTYYADSVKGRFTISRDNAKNTVYLQMNSLKPEDTAVYYCARRTYYRWYKYGYYDYNYWRQGTQVTVSS | low polyreactivity
42 | QVQLVESGGGLVQAGGSLRLSCAASGFIFSSYAMAWYRQAPGKERDLVAAISKSGDRTSYADSVKGRFTISRDNAKNTVYLQMNSLKPEDTAVYYCAKDRLYRTKKYRDMYYWGQGTQVSVSS | high polyreactivity
43 | QVQLVESGGGLVQAGGSLRLSCAASGFIFSTYAMGWYRQAPGKERELVASIDWSGDSTYYADSVKGRFTISRDNAKNTVYLQMTSLKPEDTAVYEFAADDASYPYIFDSYDYWGQGTQVTVSS | low polyreactivity
